Publication PMC11574045, “A cofactor-induced repressive type of transcription factor condensation can be induced by synthetic peptides to suppress tumorigenesis” (The EMBO Journal, 2024)

B1: SPZ1 (protein, UniProt Q9BXG8 1-430, looked up)
Spermatogenic leucine zipper …: MASSAKSAEMPTISKTVNPTPDPHQEYLDPRITIALFEIGSHSPSSWGSLPFLKNSSHQVTEQQTAQKFNNLLKEIKDILKNMAGFEEKITEAKELFEETNITEDVSAHKENIRGLDKINEMLSTNLPVSLAPEKEDNEKKQEMILETNITEDVSAHKENIRGLDKINEMLSTNLPVSLAPEKEDNEKKQQMIMENQNSENTAQVFARDLVNRLEEKKVLNETQQSQEKAKNRLNVQEETMKIRNNMEQLLQEAEHWSKQHTELSKLIKSYQKSQKDISETLGNNGVGFQTQPNNEVSAKHELEEQVKKLSHDTYSLQLMAALLENECQILQQRVEILKELHHQKQGTLQEKPIQINYKQDKKNQKPSEAKKVEMYKQNKQAMKGTFWKKDRSCRSLDVCLNKKACNTQFNIHVARKALRGKMRSASSLR
B2: SRY (protein, UniProt Q05738 1-392, looked up)
Sex-determining region Y …: MEGHVKRPMNAFMVWSRGERHKLAQQNPSMQNTEISKQLGCRWKSLTEAEKRPFFQEAQRLKILHREKYPNYKYQPHRRAKVSQRSGILQPAVASTKLYNLLQWDRNPHAITYRQDWSRAAHLYSKNQQSFYWQPVDIPTGHLQQQQQQQQQQQFHNHHQQQQQFYDHHQQQQQQQQQQQQFHDHHQQKQQFHDHHQQQQQFHDHHHHHQEQQFHDHHQQQQQFHDHQQQQQQQQQQQFHDHHQQKQQFHDHHHHQQQQQFHDHQQQQQQFHDHQQQQHQFHDHPQQKQQFHDHPQQQQQFHDHHHQQQQKQQFHDHHQQKQQFHDHHQQKQQFHDHHQQQQQFHDHHQQQQQQQQQQQQQFHDQQLTYLLTADITGWKGIKHCTGPDPEPF
B3: SSX3 (protein, UniProt Q99909 1-188, looked up)
Protein SSX3: MNGDDTFARRPTVGAQIPEKIQKAFDDIAKYFSKEEWEKMKVSEKIVYVYMKRKYEAMTKLGFKAILPSFMRNKRVTDFQGNDFDNDPNRGNQVQRPQMTFGRLQGIFPKIMPKKPAEEGNVSKEVPEASGPQNDGKQLCPPGKPTTSEKINMISGPKRGEHAWTHRLRERKQLVIYEEISDPEEDDE
B4: SSX5 (protein, UniProt O60225 1-188, looked up)
Protein SSX5: MNGDDAFVRRPRVGSQIPEKMQKAFDDIAKYFSEKEWEKMKASEKIIYVYMKRKYEAMTKLGFKATLPPFMRNKRVADFQGNDFDNDPNRGNQVEHPQMTFGRLQGIFPKITPEKPAEEGNDSKGVPEASGPQNNGKQLRPSGKLNTSEKVNKTSGPKRGKHAWTHRVRERKQLVIYEEISDPQEDDE
B5: STAT5A (protein, UniProt P42229 1-794, looked up)
Signal transducer and …: MAGWIQAQQLQGDALRQMQVLYGQHFPIEVRHYLAQWIESQPWDAIDLDNPQDRAQATQLLEGLVQELQKKAEHQVGEDGFLLKIKLGHYATQLQKTYDRCPLELVRCIRHILYNEQRLVREANNCSSPAGILVDAMSQKHLQINQTFEELRLVTQDTENELKKLQQTQEYFIIQYQESLRIQAQFAQLAQLSPQERLSRETALQQKQVSLEAWLQREAQTLQQYRVELAEKHQKTLQLLRKQQTIILDDELIQWKRRQQLAGNGGPPEGSLDVLQSWCEKLAEIIWQNRQQIRRAEHLCQQLPIPGPVEEMLAEVNATITDIISALVTSTFIIEKQPPQVLKTQTKFAATVRLLVGGKLNVHMNPPQVKATIISEQQAKSLLKNENTRNECSGEILNNCCVMEYHQATGTLSAHFRNMSLKRIKRADRRGAESVTEEKFTVLFESQFSVGSNELVFQVKTLSLPVVVIVHGSQDHNATATVLWDNAFAEPGRVPFAVPDKVLWPQLCEALNMKFKAEVQSNRGLTKENLVFLAQKLFNNSSSHLEDYSGLSVSWSQFNRENLPGWNYTFWQWFDGVMEVLKKHHKPHWNDGAILGFVNKQQAHDLLINKPDGTFLLRFSDSEIGGITIAWKFDSPERNLWNLKPFTTRDFSIRSLADRLGDLSYLIYVFPDRPKDEVFSKYYTPVLAKAVDGYVKPQIKQVVPEFVNASADAGGSSATYMDQAPSPAVCPQAPYNMYPQNPDHVLDQDGEFDLDETMDVARHVEELLRRPMDSLDSRLSPPAGLFTSARGSLS
B6: STAT5B (protein, UniProt P51692 1-787, looked up)
Signal transducer and …: MAVWIQAQQLQGEALHQMQALYGQHFPIEVRHYLSQWIESQAWDSVDLDNPQENIKATQLLEGLVQELQKKAEHQVGEDGFLLKIKLGHYATQLQNTYDRCPMELVRCIRHILYNEQRLVREANNGSSPAGSLADAMSQKHLQINQTFEELRLVTQDTENELKKLQQTQEYFIIQYQESLRIQAQFGPLAQLSPQERLSRETALQQKQVSLEAWLQREAQTLQQYRVELAEKHQKTLQLLRKQQTIILDDELIQWKRRQQLAGNGGPPEGSLDVLQSWCEKLAEIIWQNRQQIRRAEHLCQQLPIPGPVEEMLAEVNATITDIISALVTSTFIIEKQPPQVLKTQTKFAATVRLLVGGKLNVHMNPPQVKATIISEQQAKSLLKNENTRNDYSGEILNNCCVMEYHQATGTLSAHFRNMSLKRIKRSDRRGAESVTEEKFTILFESQFSVGGNELVFQVKTLSLPVVVIVHGSQDNNATATVLWDNAFAEPGRVPFAVPDKVLWPQLCEALNMKFKAEVQSNRGLTKENLVFLAQKLFNNSSSHLEDYSGLSVSWSQFNRENLPGRNYTFWQWFDGVMEVLKKHLKPHWNDGAILGFVNKQQAHDLLINKPDGTFLLRFSDSEIGGITIAWKFDSQERMFWNLMPFTTRDFSIRSLADRLGDLNYLIYVFPDRPKDEVYSKYYTPVPCESATAKAVDGYVKPQIKQVVPEFVNASADAGGGSATYMDQAPSPAVCPQAHYNMYPQNPDSVLDTDGDFDLEDTMDVARRVEELLGRPMDSQWIPHAQS
B7: SUV39H1 (protein, UniProt O43463 1-412, looked up)
Histone-lysine …: MAENLKGCSVCCKSSWNQLQDLCRLAKLSCPALGISKRNLYDFEVEYLCDYKKIREQEYYLVKWRGYPDSESTWEPRQNLKCVRILKQFHKDLERELLRRHHRSKTPRHLDPSLANYLVQKAKQRRALRRWEQELNAKRSHLGRITVENEVDLDGPPRAFVYINEYRVGEGITLNQVAVGCECQDCLWAPTGGCCPGASLHKFAYNDQGQVRLRAGLPIYECNSRCRCGYDCPNRVVQKGIRYDLCIFRTDDGRGWGVRTLEKIRKNSFVMEYVGEIITSEEAERRGQIYDRQGATYLFDLDYVEDVYTVDAAYYGNISHFVNHSCDPNLQVYNVFIDNLDERLPRIAFFATRTIRAGEELTFDYNMQVDPVDMESTRMDSNFGLAGLPGSPKKRVRIECKCGTESCRKYLF
B8: BHLHE41 (protein, UniProt Q9C0J9 1-482, looked up)
Class E basic …: MDEGIPHLQERQLLEHRDFIGLDYSSLYMCKPKRSMKRDDTKDTYKLPHRLIEKKRRDRINECIAQLKDLLPEHLKLTTLGHLEKAVVLELTLKHLKALTALTEQQHQKIIALQNGERSLKSPIQSDLDAFHSGFQTCAKEVLQYLSRFESWTPREPRCVQLINHLHAVATQFLPTPQLLTQQVPLSKGTGAPSAAGSAAAPCLERAGQKLEPLAYCVPVIQRTQPSAELAAENDTDTDSGYGGEAEARPDREKGKGAGASRVTIKQEPPGEDSPAPKRMKLDSRGGGSGGGPGGGAAAAAAALLGPDPAAAAALLRPDAALLSSLVAFGGGGGAPFPQPAAAAAPFCLPFCFLSPSAAAAYVQPFLDKSGLEKYLYPAAAAAPFPLLYPGIPAPAAAAAAAAAAAAAAAAFPCLSSVLSPPPEKAGAAAATLLPHEVAPLGAPHPQHPHGRTHLPFAGPREPGNPESSAQEDPSQPGKEAP
B9: TADA2B (protein, UniProt Q86TJ2 1-420, looked up)
Transcriptional adapter 2-beta: MAELGKKYCVYCLAEVSPLRFRCTECQDIELCPECFSAGAEIGHHRRYHGYQLVDGGRFTLWGPEAEGGWTSREEQLLLDAIEQFGFGNWEDMAAHVGASRTPQEVMEHYVSMYIHGNLGKACIPDTIPNRVTDHTCPSGGPLSPSLTTPLPPLDISVAEQQQLGYMPLRDDYEIEYDQDAETLISGLSVNYDDDDVEIELKRAHVDMYVRKLKERQRRKNIARDYNLVPAFLGKDKKEKEKALKRKITKEEKELRLKLRPLYQFMSCKEFDDLFENMHKEKMLRAKIRELQRYRRNGITKMEESAEYEAARHKREKRKENKNLAGSKRGKEDGKDSEFAAIENLPGFELLSDREKVLCSSLNLSPARYVTVKTIIIKDHLQKRQGIPSKSRLPSYLDKVLKKRILNFLTESGWISRDAS
B10: TADA2L (protein, UniProt O75478 1-443, looked up)
Transcriptional adapter …: MDRLGPFSNDPSDKPPCRGCSSYLMEPYIKCAECGPPPFFLCLQCFTRGFEYKKHQSDHTYEIMTSDFPVLDPSWTAQEEMALLEAVMDCGFGNWQDVANQMCTKTKEECEKHYMKHFINNPLFASTLLNLKQAEEAKTADTAIPFHSTDDPPRPTFDSLLSRDMAGYMPARADFIEEFDNYAEWDLRDIDFVEDDSDILHALKMAVVDIYHSRLKERQRRKKIIRDHGLINLRKFQLMERRYPKEVQDLYETMRRFARIVGPVEHDKFIESHALEFELRREIKRLQEYRTAGITNFCSARTYDHLKKTREEERLKRTMLSEVLQYIQDSSACQQWLRRQADIDSGLSPSIPMASNSGRRSAPPLNLTGLPGTEKLNEKEKELCQMVRLVPGAYLEYKSALLNECNKQGGLRLAQARALIKIDVNKTRKIYDFLIREGYITKG
B11: TADA3L (protein, UniProt O75528 1-432, looked up)
Transcriptional adapter 3: MSELKDCPLQFHDFKSVDHLKVCPRYTAVLARSEDDGIGIEELDTLQLELETLLSSASRRLRVLEAETQILTDWQDKKGDRRFLKLGRDHELGAPPKHGKPKKQKLEGKAGHGPGPGPGRPKSKNLQPKIQEYEFTDDPIDVPRIPKNDAPNRFWASVEPYCADITSEEVRTLEELLKPPEDEAEHYKIPPLGKHYSQRWAQEDLLEEQKDGARAAAVADKKKGLMGPLTELDTKDVDALLKKSEAQHEQPEDGCPFGALTQRLLQALVEENIISPMEDSPIPDMSGKESGADGASTSPRNQNKPFSVPHTKSLESRIKEELIAQGLLESEDRPAEDSEDEVLAELRKRQAELKALSAHNRTKKHDLLRLAKEEVSRQELRQRVRMADNEVMDAFRKIMAARQKKRTPTKKEKDQAWKTLKERESILKLLDG

system: HEK293FT cells transfected with TF library; test: Screening of TF condensates based on fluorescent puncta; assay type: cell-based; settings: Figure 1B numerical data; TF library screen, one value per transcriptional factor
How it was run: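 TF plasmids (final 1.6 μg/ml) reverse-transfected with PEI (4.8 μg/ml) into HEK293FT cells; after 60 h, cells cultured ±glucose for 12 h, fixed in 4% PFA and immunostained for Flag or GAL4 tags with Alexa 488 secondaries. Puncta scored by automated imaging of 50 random fields per well.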

Point of comparison: B1, “Z score of condensed fraction” value 0.06851. Against it:
- B2 — lower, -0.331
- B3 — higher, 0.2674
- B4 — higher, 0.09353
- B5 — lower, -0.6398
- B6 — higher, 2.437
- B7 — lower, -0.8281
- B8 — lower, -0.9569
- B9 — lower, -0.4021
- B10 — higher, 2.809
- B11 — higher, 1.084
